According to PMC6826380, “Overexpression of a Novel Cytochrome P450 Promotes Flavonoid Biosynthesis and Osmotic Stress Tolerance in Transgenic Arabidopsis” (Genes, 2019):

Tested on: T1, C[C@@H]1O[C@@H](OC[C@H]2O[C@@H](Oc3c(-c4ccc(O)c(O)c4)oc4cc(O)cc(O)c4c3=O)[C@H](O)[C@@H](O)[C@@H]2O)[C@H](O)[C@H](O)[C@H]1O
T1 construct: N-terminal His tag, pET28a in E. coli BL21(DE3), Ni-NTA; forward coding primer starts ATGGCCGACGACTATGGC (MADDYG)
Test: purified protein
Assay type: biochemical, Carthamus tinctorius
Settings: range of rutin concentrations; no redox partner or NADPH stated

In the case of “CtCYP82G24 (Carthamus tinctorius var. tinctorius)”, the Km is reported as 5.37 ± 0.123 mM.
